We go through eight molecules from patent EP4772193A1 (Teijin Pharma Limited, dated 2026).

Test [1] deals with T1, recombinant human soluble gpNMB (recombinant human gpNMB-FLAG-His) (human, UniProt Q14956 23-498).
T1 sequence: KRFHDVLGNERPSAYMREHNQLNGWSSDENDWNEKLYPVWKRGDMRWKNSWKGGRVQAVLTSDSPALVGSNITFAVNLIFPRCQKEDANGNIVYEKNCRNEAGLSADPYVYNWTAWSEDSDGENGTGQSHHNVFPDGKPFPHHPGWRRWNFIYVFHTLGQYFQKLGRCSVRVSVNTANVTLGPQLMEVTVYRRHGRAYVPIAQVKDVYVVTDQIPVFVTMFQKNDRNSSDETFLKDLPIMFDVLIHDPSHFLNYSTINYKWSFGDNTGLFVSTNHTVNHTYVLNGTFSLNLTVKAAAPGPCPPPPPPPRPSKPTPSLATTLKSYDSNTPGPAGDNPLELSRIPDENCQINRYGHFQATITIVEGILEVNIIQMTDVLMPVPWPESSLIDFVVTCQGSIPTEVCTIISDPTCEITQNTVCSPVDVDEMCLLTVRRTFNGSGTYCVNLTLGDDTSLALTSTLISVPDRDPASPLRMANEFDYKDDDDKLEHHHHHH
The test can be described thus: SPR, antibody over captured gpNMB-FLAG-His, 1:1 model.

Test [2] addresses T1, recombinant human soluble gpNMB …. Briefly: antigen ELISA.
The target is the same in test [3]. Briefly: SPR single-cycle kinetics, antibody over captured gpNMB-FLAG-His, 36C, mean of 2.
Test [4] concerns the target T2, recombinant mouse soluble gpNMB (recombinant mouse gpNMB-FLAG-His) (mouse, UniProt Q99P91 23-502).
T2 sequence: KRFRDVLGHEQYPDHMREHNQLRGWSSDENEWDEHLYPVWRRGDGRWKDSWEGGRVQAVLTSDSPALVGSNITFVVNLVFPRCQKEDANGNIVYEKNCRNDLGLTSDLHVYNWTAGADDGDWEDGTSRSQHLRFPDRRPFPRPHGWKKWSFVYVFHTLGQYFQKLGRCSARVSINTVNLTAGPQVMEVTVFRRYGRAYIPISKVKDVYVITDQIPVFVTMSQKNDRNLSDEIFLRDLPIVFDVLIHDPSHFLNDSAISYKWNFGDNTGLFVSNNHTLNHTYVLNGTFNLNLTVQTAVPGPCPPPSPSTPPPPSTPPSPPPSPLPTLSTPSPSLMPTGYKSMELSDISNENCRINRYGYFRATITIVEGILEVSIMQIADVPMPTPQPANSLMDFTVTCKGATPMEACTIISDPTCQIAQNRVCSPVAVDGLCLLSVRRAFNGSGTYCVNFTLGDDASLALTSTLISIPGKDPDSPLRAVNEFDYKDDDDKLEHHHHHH
The description is as above.

Test [5] addresses T3, human gpNMB (Human Osteoactivin, His-tag, AcroBioSystems) (human, UniProt Q14956-2 23-486, limits assumed).
T3 sequence (looked up): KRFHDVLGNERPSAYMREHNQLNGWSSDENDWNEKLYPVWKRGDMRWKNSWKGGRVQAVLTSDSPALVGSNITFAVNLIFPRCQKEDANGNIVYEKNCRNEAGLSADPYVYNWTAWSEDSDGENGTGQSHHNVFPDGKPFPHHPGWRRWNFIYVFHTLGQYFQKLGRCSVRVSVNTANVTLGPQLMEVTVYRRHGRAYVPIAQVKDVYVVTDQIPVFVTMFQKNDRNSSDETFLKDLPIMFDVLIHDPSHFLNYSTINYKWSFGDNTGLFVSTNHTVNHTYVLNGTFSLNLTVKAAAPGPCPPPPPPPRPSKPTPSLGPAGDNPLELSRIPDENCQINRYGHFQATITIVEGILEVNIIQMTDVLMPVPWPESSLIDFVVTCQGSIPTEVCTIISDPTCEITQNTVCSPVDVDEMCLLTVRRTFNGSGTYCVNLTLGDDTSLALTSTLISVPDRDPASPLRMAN
The test can be described thus: SPR Biacore 8K, antibody captured on protein A, gpNMB as analyte.

Test [6] deals with T1, recombinant human soluble gpNMB …. The test can be described thus: antigen ELISA. This is another data set of the same source.
For test [7] the target is unchanged. The test can be described thus: antigen ELISA. The source holds these as a separate data set.
Test [8] has the same target. The test can be described thus: antigen ELISA, vs hGPN06-1_H1L1.
For test [9] the target is unchanged. The test can be described thus: antigen ELISA, vs hGPN06-1_H1L1. This is another data set of the same source.
For test [10] the target is unchanged. The test can be described thus: antigen ELISA, vs hGPN06-1_H1L1. The source holds these as a separate data set.
The target is the same in test [11]. The test can be described thus: antigen ELISA. This is another data set of the same source.
The target is the same in test [12]. The test can be described thus: SPR, antibody 100 nM over captured gpNMB-FLAG-His, 36C.
The target is the same in test [13]. The test can be described thus: antigen ELISA. The source holds these as a separate data set.
Test [14] shares this target. Briefly: antigen ELISA. This is another data set of the same source.
For test [15] the target is unchanged. Briefly: antigen ELISA, vs hGPN18-2_H2L3.
For test [16] the target is unchanged. Briefly: antigen ELISA, vs hGPN18-2_H2L3. The source holds these as a separate data set.
For test [17] the target is unchanged. The test can be described thus: antigen ELISA, vs hGPN18-2_H2L3. The source holds these as a separate data set.
The target is the same in test [18]. Briefly: antigen ELISA. The source holds these as a separate data set.
For test [19] the target is unchanged. The test can be described thus: antigen ELISA. This is another data set of the same source.

Substitutions are numbered along the chain they refer to. Read-outs that look alike come from different tables or passages of the source.

B1: hGPN06-1_H0L0 (antibody, V domains shown)
VH: QVQLQQPGAEIVRPGASVKLSCKASGYTFTDNWMGWVKQRPGQGLEWIGAIDPSDSFTNYNQNFKGKATLTVDTSSSTAYMQLSSLTSEDSAVYFCTRSGYYGSPKLGGDYWGQGTTLTVSS
VL: QIVLTQSPAIMSASLGEEITLTCSASSSISYMHWYQQKSGTSPKLLIYSTSNLASGVPSRFSGSGSGTFYSLTISSVEAEDAADYYCHQWNSYPCTFGGGTKLEIK
notes: human chimeric antibody: mouse GPN06-1 variable regions (VH0, VL0); also called human chimeric antibody of GPN06-1
Consider B1, for which, in [1], the Kd came to 0.265 nM, the koff was 0.000209 s⁻¹ and the on-rate (kon) was found to be 789000 M⁻¹ s⁻¹. Also, the EC50 in [2] came to 0.383 nM.

B2: hGPN18-5_H3L1 (antibody, V domains shown)
VH: QVQLVQSGAEVKKPGASVKVSCKASGYTFTTYWMNWVRQAPGQGLEWIGAINPSNDYTEYNQKFKDRAIMTADKSTSTVYMELSSLRSEDTAVYYCGRSYSPDYWGQGTTVTVSS
VL: DIQMTQSPSSLSASVGDRVTITCKASQNVDNHVAWFQQKPGKAPKALIYSASYRYSGVPSRFSGSGSGTDFTLTISSLQPEDFATYFCQQYKSYPFTFGGGTKLEIK
notes: humanized; also called hGPN18-5 VH3+VL1
As for B2, in test [3], the Kd turned out to be 11.3 nM, the koff is 0.00138 s⁻¹ and the kon is 142000 M⁻¹ s⁻¹. In addition, in [4], the Kd was found to be 17.8 nM, the koff came out at 0.000862 s⁻¹ and the on-rate constant (kon) turned out to be 52900 M⁻¹ s⁻¹. In test [5], this molecule yielded a Kd of 711 nM, a koff of 0.00484 s⁻¹ and an on-rate constant (kon) of 6810 M⁻¹ s⁻¹.

B3: hGPN18-5_H1L1 (antibody, V domains shown)
VH: B2 VH with A68V, I69T, K74T
VL: B2 VL
notes: humanized; also called hGPN18-5_VH1+VL1
As to B3, in test [3], the dissociation constant (Kd) is 16.2 nM, the koff came to 0.00307 s⁻¹ and the on-rate constant (kon) worked out at 308000 M⁻¹ s⁻¹. For the same molecule, in [4], the dissociation constant (Kd) is 21.9 nM, the koff was determined as 0.00143 s⁻¹ and the kon amounted to 73800 M⁻¹ s⁻¹. In [5], this molecule showed a Kd of 651 nM, a koff of 0.00432 s⁻¹ and a kon of 6640 M⁻¹ s⁻¹.

B4: hGPN18-5_H3L3 (antibody, V domains shown)
VH: B2 VH
VL: B2 VL with F36H, S60D, S63T, T85D
notes: humanized; also called hGPN18-5_VH3+VL3
Turning to B4, the dissociation constant Kd in test [3] amounted to 6.98 nM; in test [4], 6.39 nM; in test [5], 352 nM. Moreover, the dissociation rate constant (koff) is 0.00121 s⁻¹ in test [3], 0.000711 s⁻¹ in test [4] and 0.00201 s⁻¹ in test [5]. Further, the results for the on-rate (kon) in test [3], in test [4] and in [5] were 176000 M⁻¹ s⁻¹, 111000 M⁻¹ s⁻¹ and 5720 M⁻¹ s⁻¹, respectively.

B5: hGPN18-5_H0L0 (antibody, V domains shown)
VH: QVQLQQSGAELAKPGTSVKMSCKASGYTFTTYWMNWVKQRPGQDLEWIGAINPSNDYTEYNQKFKDKAILTADKSSNTAYMQLSSLTSEDSAVYYCGRSYSPDYWGQGTTLTVSS
VL: DIVMTQSQKFMSTSVGDRVSVTCKASQNVDNHVAWHQQKPGQSPKALIYSASYRYSGVPDRFTGSGSGTDFTLTIRDVQSEDLADYFCQQYKSYPFTFGSGTELEIK
notes: chimeric antibody with mouse GPN18-5 variable regions (VH0, VL0); also called hGPN18-5_VH0+VL0; HGPN18-5_VH0+VL0
For B5, the figures for the Kd in test [3], in test [4] and in test [5] were 3.08 nM, 5.31 nM and 237 nM, respectively. Besides, the koff in [3] came to 0.000727 s⁻¹; in [4] it was 0.00075 s⁻¹; in test [5], 0.002 s⁻¹. For the same molecule, the values for the association rate constant (kon) in test [3], in test [4] and in test [5] were 237000 M⁻¹ s⁻¹, 142000 M⁻¹ s⁻¹ and 8440 M⁻¹ s⁻¹, respectively.

B6: hGPN06-1_H1L1 (antibody, V domains shown)
VH: QVQLVQSGAEVKKPGASVKVSCKASGYTFTDNWMGWVKQRPGQGLEWIGAIDPSDSFTNYNQNFKGRVTMTVDTSISTAYMELSRLRSDDSAVYFCTRSGYYGSPKLGGDYWGQGTLVTVSS
VL: EIVLTQSPSSLSASVGDRVTITCSASSSISYMHWYQQKSGTAPKLLIYSTSNLASGVPSRFSGSGSGTDFTFTISSLQPEDAATYYCHQWNSYPCTFGGGTKLEIK
notes: humanized; also called humanized anti-gpNMB antibody H1L1
Regarding B6, the EC50 in [6] came out at 1.98 nM; in test [7], 1.98 nM; in test [11], 1.98 nM; in test [2] it was 0.575 nM. The Relative binding activity in test [8], in test [9] and in test [10] was 1 throughout. Further, the equilibrium dissociation constant (Kd) in [1] is 0.62 nM. Further, the off-rate (koff) in test [1] came to 0.000567 s⁻¹. Further, in [1], the kon is 916000 M⁻¹ s⁻¹.

B7: hGPN18-2_H0L0 (antibody, V domains shown)
VH: QVTLKESGPGILQPSQTLSLTCSFSGFSLSTSVMGVGWIRQPSGKGLEWLADIWWDDDKDYNPSLKSRLTISKDTSKNQVFLKIASVDTADTATYYCARTYYSNYEYYGMDYWGQGTSVTVSS
VL: DVLMTQTPLSLPVSLGDQASISCRSSQTIILSNGNTYLEWYLQKPGQSPKLLIYKVSNRFSGVPDRFSGSGSGTDFTLKISRVEAEDLGVYYCFQGSHVPFTFGSGTKLEIK
notes: human chimeric antibody: mouse GPN18-2 variable regions; also called human chimeric antibody of GPN18-2
In the case of B7, in test [12], the Kd was 0.00346 nM, the koff was found to be 4.71e-07 s⁻¹ and the kon was found to be 141000 M⁻¹ s⁻¹. Further, in [13], the concentration giving a half-maximal response (EC50) stood at 1.21 nM.

B8: hGPN18-2_H2L3 (antibody, V domains shown)
VH: QVQLVQSGPGLVQPTQTLTLTCSFSGFSLSTSVMGVGWIRQPSGKGLEWLADIWWDDDKDYNPSLKSRLTISKDTSKNQVVLTMTNMDTVDTATYYCARTYYSNYEYYGMDYWGQGTLVTVSS
VL: DIVMTQSPDSLAVSLGERATINCRSSQTIILSNGNTYLEWYQQKPGQPPKLLIYKVSNRFSGVPDRFSGSGSGTDFTLTISSLQAEDVAVYYCFQGSHVPFTFGSGTKLEIKR
notes: humanized; also called humanized anti-gpNMB antibody H2L3
With B8, the EC50 in test [14] is 4.39 nM; in [18], 4.39 nM; in [13] it was 1.84 nM; in test [19], 4.39 nM. Also, the Relative binding activity in test [15], in test [16] and in [17] was 1 throughout. Besides, the Kd in test [12] turned out to be 0.00778 nM. Also, the koff in test [12] stood at 7.49e-07 s⁻¹. In [12], the kon amounted to 96200 M⁻¹ s⁻¹.
